Tests used:
[1] = system: E. coli BK2118 (tag, alkA); experiment: MMS complementation assay; assay type: cell-based, Escherichia coli; settings: pUC18 constructs, 1 mM to 5 mM MMS plates, 2 days, 37°C
[2] = Thermal denaturation by circular dichroism; assay type: physicochemical; settings: thermal denaturation curves, CD
Experimental: Secondary structure and temperature stability of recombinant proteins were determined by recording circular dichroism spectra (CD) on a Jasco J-815 spectropolarimetar (JASCO, Easton, MD, USA) with automatic temperature control according to Jajčanin-Jozić et al.. Analysis of protein secondary structure from CD spectra was performed by using the CDSSTR program at the DICHROWEB site (http://public-1.cryst.bbk.ac.uk/cdweb/html). Protein concentrations were determined by the Bradford method.

B1: PgDPP III: full-length dipeptidyl peptidase III from P. gingivalis W83 (PG_0317), 886 aa (protein)
chain: MTKETTQHRSGERIARFADIEVLSYRADLFGTLTPKQRMLCYHLSEAALRGRDITTIQNCRYNLWVRSLMERIYTHLSKSERTDDFALLEEYLFCIWFANGIHHHYSGAKFIARFSPGFLRAALREAGVELEPEEQVLLERVLYDTDFLPKQTEQSGEEDIIKASSVNFYAPGITRAEAESHYKNLIEALPENEKSCPPSFGLNTRLIRSTSGELKDEVCCIDGLYGPAIEAVVASLEAAIPYTENEEQAACIRLLCDYYRTGDIRLYDRFCIRWVENNRTRIDFINGFTEVYADPIGIHGSWEGLVHMQDEEAGRRTRIISEHAGWFEAHSPIDARFRKKNPHGISATVVNVLTIAGDSYPATPIGINLPNADWIRAEHGSKSVTIDNITDAYNHAARGTGLYEEFIPDEEVRRHVELHADLTDSLHTDLHECLGHGSGQLLPGVPGDALGEHASTLEETRADLFALYFLADPKMIELGLLTDPDAYKANYYKYMLNGLMTQLVRIKRGEEIEEAHMRNRALIARYVLEHAERPGAMSLVCEEGKTALVIKDYEAVRAIIAGLLTEVQRIKSEGDYTAGKALVERYAVHVDPLLHEEVLTRYAKLDIAPYKGFVNPRLRPVYNSEGRLTDATIEYTEGYAEQMLRYSAEYSFLPTDSPLLQEARRLRSHLRRAMDGVLSASMREKGLHYGINFGVTREHLLRLARTADASAPLADYLWRRDVRETKILATMIFPAEELTHEQATRLLREADNVELREQLTANLLERMPEAIRSIGRWIESKETTPDMMTGVLTLAARLFTRGIFPEDVPAEKLLTLAILHLSDEEQKAELRRASALLLKRYGRGSAERTKKVLCLLPESSQDTAPVLYELCEDIRFELDFYPKDE
modifications: left off: His tag, C-terminal, state not stated
[1]
  rescue of alkylation-sensitive phenotype / alkylation repair function (in words): absence of any alkylation repair function
[1]; listed as full length PgDPP III
  rescue of alkylation-sensitive phenotype / alkylation repair function (in words): does not possess alkylation repair function
[2]
  Tm: 50 °C

— paper PMC5708649, “A novel Porphyromonas gingivalis enzyme: An atypical dipeptidyl peptidase III with an ARM repeat domain” (PLoS ONE, 2017)
